Reference: patent US20220340657A1 (L AND L BIO CO LTD NINGBO CHINA, published 2022)
Residue numbers refer to the chain shown, from its start.

T1: human LAG-3-his (human, UniProt P18627 23-422)
T1 construct: range 23-422; also called hLAG-3-his; hLAG-3
T1 sequence: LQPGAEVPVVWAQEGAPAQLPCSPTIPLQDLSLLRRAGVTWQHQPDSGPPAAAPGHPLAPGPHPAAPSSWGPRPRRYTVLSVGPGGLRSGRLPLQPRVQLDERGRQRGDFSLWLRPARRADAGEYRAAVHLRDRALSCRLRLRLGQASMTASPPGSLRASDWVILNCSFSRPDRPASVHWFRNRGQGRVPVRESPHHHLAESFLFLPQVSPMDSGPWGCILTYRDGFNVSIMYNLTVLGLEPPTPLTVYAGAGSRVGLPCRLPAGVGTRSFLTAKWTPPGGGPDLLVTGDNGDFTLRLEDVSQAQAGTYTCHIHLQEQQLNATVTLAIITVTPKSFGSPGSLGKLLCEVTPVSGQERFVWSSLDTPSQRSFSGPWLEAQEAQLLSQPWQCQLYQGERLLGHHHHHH

T2: bio-LAG3-mFc (human, UniProt P18627 23-450, biotin-labelled)
T2 construct: also called hLAG-3
T2 sequence (looked up): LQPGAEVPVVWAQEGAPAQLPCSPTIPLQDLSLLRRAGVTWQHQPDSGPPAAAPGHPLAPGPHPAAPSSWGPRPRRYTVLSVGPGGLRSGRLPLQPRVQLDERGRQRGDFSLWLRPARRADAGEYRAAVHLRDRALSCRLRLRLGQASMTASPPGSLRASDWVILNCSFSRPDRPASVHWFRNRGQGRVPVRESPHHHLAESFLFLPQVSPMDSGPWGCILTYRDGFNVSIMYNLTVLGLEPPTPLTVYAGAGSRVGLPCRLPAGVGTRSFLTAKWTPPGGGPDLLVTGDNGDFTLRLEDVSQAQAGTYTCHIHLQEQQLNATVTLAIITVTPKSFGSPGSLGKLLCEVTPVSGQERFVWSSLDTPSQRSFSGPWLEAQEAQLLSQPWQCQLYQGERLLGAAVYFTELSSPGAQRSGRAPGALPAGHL

B1: Ab2315 (antibody, human IgG4 S228P, kappa, V domains shown)
VH: QVQLVQSGAEVKKPGASVKVSCKASGYTFTDYEMHWVKQAPGQGLEWIGGIDPETEGIAYNQKFRGRATLTADKSTSTAYMELRSLRSDDTAVYYCTNSNYYGGREAWFAYWGQGTLVTVSS
VL: DIQMTQSPSSLSASVGDRVTITCRASQDIGSSLNWLQQKPGKAIKRLIYATSSLDSGVPSRFSGSGSGTDYTLTISSLQPEDFATYYCLQYVTSPLTFGGGTKVEIKR
notes: LG2315 / LG2343, human kappa / hIgG4
B2: Ab2314 (antibody, human IgG4 S228P, kappa, V domains shown)
VH: B1 VH
VL: B1 VL with G66R, T69S
notes: human kappa / hIgG4
B3: Ab2319 (antibody, human IgG4 S228P, kappa, V domains shown)
VH: B1 VH with L70M, A72T
VL: B1 VL with G66R, T69S
notes: human kappa / hIgG4
B4: Ab2318 (antibody, human IgG4 S228P, kappa, V domains shown)
VH: B1 VH
VL: B1 VL with G66R, Y71F
notes: human kappa / hIgG4
B5: Ab2316 (antibody, human IgG4 S228P, kappa, V domains shown)
VH: B1 VH
VL: B1 VL with G66R, T69S, Y71F
notes: human kappa / hIgG4
B6: Ab2322 (antibody, human IgG4 S228P, kappa, V domains shown)
VH: B1 VH with L70M, A72T, K74T
VL: B1 VL with L36Y, I44P, G66R, T69S, Y71F
notes: human kappa / hIgG4
B7: Ab2320 (antibody, human IgG4 S228P, kappa, V domains shown)
VH: B1 VH with L70M, A72T
VL: B1 VL
notes: human kappa / hIgG4
B8: Ab2313 (antibody, human IgG4 S228P, kappa, V domains shown)
VH: B1 VH
VL: B1 VL with T5I, K42G, G66R, T69S, T72S
notes: human kappa / hIgG4
B9: LB2383 (bispecific antibody, human IgG4 S228P, kappa)
light: EIVLTQSPATLSLSPGERATLSCRASKGVSTSGYSYLHWYQQKPGQAPRLLIYLASYLESGVPARFSGSGSGTDFTLTISSLEPEDFAVYYCQHSRDLPLTFGGGTKVEIKRTVAAPSVFIFPPSDEQLKSGTASVVCLLNNFYPREAKVQWKVDNALQSGNSQESVTEQDSKDSTYSLSSTLTLSKADYEKHKVYACEVTHQGLSSPVTKSFNRGEC
heavy: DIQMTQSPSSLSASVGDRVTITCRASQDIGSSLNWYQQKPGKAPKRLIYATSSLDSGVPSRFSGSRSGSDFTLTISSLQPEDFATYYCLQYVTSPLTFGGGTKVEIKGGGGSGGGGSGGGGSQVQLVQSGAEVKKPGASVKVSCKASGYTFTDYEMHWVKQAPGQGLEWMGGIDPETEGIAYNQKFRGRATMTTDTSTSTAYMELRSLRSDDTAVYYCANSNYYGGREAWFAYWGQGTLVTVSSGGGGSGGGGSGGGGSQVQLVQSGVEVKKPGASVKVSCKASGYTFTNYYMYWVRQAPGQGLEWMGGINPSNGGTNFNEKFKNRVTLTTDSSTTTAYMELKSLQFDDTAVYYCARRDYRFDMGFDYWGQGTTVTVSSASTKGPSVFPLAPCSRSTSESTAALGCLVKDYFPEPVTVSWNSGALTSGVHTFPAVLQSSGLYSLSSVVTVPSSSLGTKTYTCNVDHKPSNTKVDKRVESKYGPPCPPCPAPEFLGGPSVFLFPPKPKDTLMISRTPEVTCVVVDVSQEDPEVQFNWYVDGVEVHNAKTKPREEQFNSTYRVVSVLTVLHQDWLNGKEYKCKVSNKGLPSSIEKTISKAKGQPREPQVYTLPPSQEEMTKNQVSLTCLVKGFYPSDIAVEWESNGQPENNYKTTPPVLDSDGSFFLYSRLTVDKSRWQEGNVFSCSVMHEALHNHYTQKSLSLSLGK
B10: LB2382 (bispecific antibody, human IgG4 S228P, kappa)
light: EIVLTQSPATLSLSPGERATLSCRASKGVSTSGYSYLHWYQQKPGQAPRLLIYLASYLESGVPARFSGSGSGTDFTLTISSLEPEDFAVYYCQHSRDLPLTFGGGTKVEIKRTVAAPSVFIFPPSDEQLKSGTASVVCLLNNFYPREAKVQWKVDNALQSGNSQESVTEQDSKDSTYSLSSTLTLSKADYEKHKVYACEVTHQGLSSPVTKSFNRGECGGGGSGGGGSGGGGSQVQLVQSGAEVKKPGASVKVSCKASGYTFTDYEMHWVKQAPGQGLEWIGGIDPETEGIAYNQKFRGRATLTADKSTSTAYMELRSLRSDDTAVYYCTNSNYYGGREAWFAYWGQGTLVTVSSGGGGSGGGGSGGGGSDIQMTQSPSSLSASVGDRVTITCRASQDIGSSLNWYQQKPGKAPKRLIYATSSLDSGVPSRFSGSRSGSDFTLTISSLQPEDFATYYCLQYVTSPLTFGGGTKVEIK
heavy: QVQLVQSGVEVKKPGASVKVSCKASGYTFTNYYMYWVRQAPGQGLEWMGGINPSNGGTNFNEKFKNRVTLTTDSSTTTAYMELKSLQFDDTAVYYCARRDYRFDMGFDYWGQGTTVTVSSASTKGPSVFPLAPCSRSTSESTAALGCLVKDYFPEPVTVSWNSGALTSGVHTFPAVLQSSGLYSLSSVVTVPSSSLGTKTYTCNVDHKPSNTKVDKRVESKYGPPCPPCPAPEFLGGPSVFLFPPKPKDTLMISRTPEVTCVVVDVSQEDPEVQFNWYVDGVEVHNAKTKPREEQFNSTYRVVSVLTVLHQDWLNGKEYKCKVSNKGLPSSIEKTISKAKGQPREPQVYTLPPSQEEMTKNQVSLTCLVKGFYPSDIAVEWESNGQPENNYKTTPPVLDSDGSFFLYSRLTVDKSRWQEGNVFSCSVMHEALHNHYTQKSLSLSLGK
B11: LB2381 (bispecific antibody, human IgG4 S228P, kappa)
light: DIQMTQSPSSLSASVGDRVTITCRASQDIGSSLNWYQQKPGKAPKRLIYATSSLDSGVPSRFSGSRSGSDFTLTISSLQPEDFATYYCLQYVTSPLTFGGGTKVEIKGGGGSGGGGSGGGGSQVQLVQSGAEVKKPGASVKVSCKASGYTFTDYEMHWVKQAPGQGLEWIGGIDPETEGIAYNQKFRGRATLTADKSTSTAYMELRSLRSDDTAVYYCTNSNYYGGREAWFAYWGQGTLVTVSSGGGGSGGGGSGGGGSEIVLTQSPATLSLSPGERATLSCRASKGVSTSGYSYLHWYQQKPGQAPRLLIYLASYLESGVPARFSGSGSGTDFTLTISSLEPEDFAVYYCQHSRDLPLTFGGGTKVEIKRTVAAPSVFIFPPSDEQLKSGTASVVCLLNNFYPREAKVQWKVDNALQSGNSQESVTEQDSKDSTYSLSSTLTLSKADYEKHKVYACEVTHQGLSSPVTKSFNRGEC
heavy: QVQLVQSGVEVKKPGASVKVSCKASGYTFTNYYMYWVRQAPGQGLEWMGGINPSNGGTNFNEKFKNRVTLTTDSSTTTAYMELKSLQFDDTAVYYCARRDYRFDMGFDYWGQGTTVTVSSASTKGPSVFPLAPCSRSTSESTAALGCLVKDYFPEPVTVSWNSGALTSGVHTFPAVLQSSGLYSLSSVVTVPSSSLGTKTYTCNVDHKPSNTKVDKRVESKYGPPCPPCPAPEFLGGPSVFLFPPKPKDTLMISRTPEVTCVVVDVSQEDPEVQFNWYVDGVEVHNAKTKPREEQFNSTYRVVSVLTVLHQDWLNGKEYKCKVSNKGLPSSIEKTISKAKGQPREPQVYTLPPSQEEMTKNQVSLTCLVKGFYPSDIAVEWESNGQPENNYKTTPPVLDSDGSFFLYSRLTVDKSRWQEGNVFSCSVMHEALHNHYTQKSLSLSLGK

The binders below were run against T1, human LAG-3-his (assay: ELISA on hLAG-3).
Experimental: After discarding the liquid, a blocking solution of 5% skimmed milk (Bright skimmed milk powder) diluted with PBS was added at 230 μl per well, followed by incubating at 37° C. for 3 hours or 4° C. overnight (16-18 hours) for blocking. Subsequently, the blocking solution was discarded, and the micropiate was washed 5 times with PBST buffer (pH 7.4 PBS containing 0.05% tweeen-20). Then 50 μl/well of the supernatant (containing the antibody to be tested) or a starting concentration of 10 μg/ml of the antibody to be tested, which was diluted 5 times in gradient, was added, followed by incubating the mixture for 1 hour at 37° C. […] After washing the microplate 5 times with PBST, 50 μl/well TIMB chromogenic substrate (KPL, Cat. No.: 52-00-03) was added, and then incubated for […] at room temperature. Finally, 50 μl/well of 1 M H₂SO₄ was added to stop the reaction. The absorbance value at 450 nm was read by […] GO microplate reader (ThermoFisher, Cat. No.: 51119200). The clones with high affinity were selected according to the OD value or the EC₅₀ value was calculated (for antibodies with known concentrations).

Row | EC50 | Binder
1 | 181 pM | B1
2 | 237 pM | B2
3 | 764 pM | B3
4 | 280 pM | B4
5 | 307 pM | B5
6 | 131 pM | B6
7 | 1010 pM | B7
8 | 221 pM | B8

These binders were tested against T3, human PD-1 (hFc/his tag) (human, UniProt Q15116 21-167) (assay: ELISA on human PD-1).
T3 construct: range 21-167; not shown: hFc or his tag
T3 sequence (Q15116 21-167, form in doubt): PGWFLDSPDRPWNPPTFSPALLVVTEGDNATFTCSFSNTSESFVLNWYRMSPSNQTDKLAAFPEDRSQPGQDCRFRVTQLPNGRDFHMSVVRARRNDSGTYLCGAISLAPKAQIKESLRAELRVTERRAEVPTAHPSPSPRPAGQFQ

Row | EC50 | Binder
9 | 138 pM | B9
10 | 309 pM | B10
11 | 332 pM | B11

These binders were tested against T1, human LAG-3-his (assay: ELISA on human LAG-3).

Row | EC50 | Binder
12 | 237 pM | B9
13 | 951 pM | B10
14 | 790 pM | B11

What follows are binders tested against T2, bio-LAG3-mFc (assay: blocking ELISA, LAG-3 on Daudi cells).

Row | IC50 | Binder
15 | 2180 pM | B1
16 | 1220 pM | B2
17 | 1850 pM | B3
18 | 860 pM | B4
19 | 1500 pM | B5
20 | 2320 pM | B6
21 | 1320 pM | B7
22 | 3220 pM | B8
